Laboratory results taken from paper PMC4466140, “Evolution of the SH3 Domain Specificity Landscape in Yeasts” (PLoS ONE, 2015).

How the values were obtained:
Assay in all cases: peptide or protein array; SPOT: 15-mer peptides on cellulose (CAPE) membrane; GST-SH3 domains at 10 μg/ml overnight at 4°C in blocking buffer (TBS, 50 mM Tris/HCl pH 7.6, 150 mM NaCl, Blocking Buffer, 0.15 M sucrose); detected with anti-GST antibody and HRP conjugate
Conditions in all cases: both partners purified
[1] = biological target: T1, GST-tagged S. pombe Rvs167 (Hob1) SH3 domain (S. pombe, UniProt O74352 407-466)
T1 construct: Rvs167 homolog of S. pombe, called Hob1, SH3 domain; also called SpRvs167; source: E. coli BL21(DE3), purified (glutathione Sepharose 4B); not shown: GST, N-terminal, kept
T1 sequence (looked up): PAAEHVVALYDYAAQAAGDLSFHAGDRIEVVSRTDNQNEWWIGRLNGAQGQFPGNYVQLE

[2] = biological target: T2, GST-tagged C. albicans Rvs167 SH3 domain (C. albicans, UniProt Q59LF3 382-440)
T2 construct: Rvs167 of Candida albicans, SH3 domain; also called CaRvs167; source: E. coli BL21(DE3), purified (glutathione Sepharose 4B); not shown: GST, N-terminal, kept
T2 sequence: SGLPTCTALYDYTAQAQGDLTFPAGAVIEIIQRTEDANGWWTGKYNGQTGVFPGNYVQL

[3] = biological target: T3, GST-tagged S. cerevisiae Rvs167 SH3 domain (S. cerevisiae, UniProt P39743 421-482)
T3 construct: Rvs167, S. cerevisiae, SH3 domain; also called ScRvs167; source: E. coli BL21(DE3), purified (glutathione Sepharose 4B); not shown: GST, N-terminal, kept
T3 sequence (P39743 421-482): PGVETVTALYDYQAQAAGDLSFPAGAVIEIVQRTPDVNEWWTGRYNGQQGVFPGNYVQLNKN

Measured: binding result

B1: Type II peptide #66 (SPOT membrane) (peptide)
peptide: SSSSTPPTLPPRRIE
notes: 15-mer of the SH3-SPOT library mined from the S. cerevisiae proteome; In the SPOT library all cysteines were replaced by serines; source: synthetic peptide, SPOT synthesis on cellulose (CAPE) membrane
binds: [1] | [2] | [3]
